In patent publication US20150141617A1, “PRODUCTION AND PURIFICATION OF ACTIVE EUKARYOTIC FORMYLGLYCINEGENERATING ENZYME (FGE) VARIANTS” (Universität Bielefeld, priority 2013, published 2015):
Each block holds one molecule with its values, some of them ahead of it. The star is where a group is joined. Decanoyl = CCCCCCCCCC(=O)*; CH2Cl = ClC*

Key:
[1] = test system: PCs (furin or furin-like convertases); experiment: Treatment of HT1080 Tet-On cells expressing FGE with RVKR-CMK inhibitor; assay type: cell-based, human; conditions: increasing concentrations of the inhibitor, 16 h
Protocol: (§1) CHO-FD11 cells stably expressing FGE-His6 or HT1080 cells were grown for 24 h, and cells and medium were harvested. For treatment with furin in vitro cell pellets were resuspended in HEPES pH 7.5 buffer containing 1 mM CaCl2 and 0.5% Triton X-100 and lysed in the absence of protease inhibitors by sonication on ice. Appropriate amounts of cell lysate and medium were incubated for 3 h at 25° C. with 4 units of furin (NEB) with or without 25 μM decanoyl-RVKR-CMK (Alexis biochemicals) as indicated in the figures. For in vivo treatment, HT1080 Tet-On cells were transiently transfected with pBI-FGE-HA and 4 h post-transfection, the medium was replenished with medium containing 20 ng/mL doxycycline and various concentrations of decanoyl-RVKR-CMK or only DMSO as a carrier control. The cells and medium were collected after 16 h of induction/treatment for further analysis. The samples were boiled in Laemmli buffer and analyzed by SDS-PAGE and western blotting with FGE antiserum.
In order to verify that the N-terminus of FGE containing the RYSR motif is subject to processing by furin or furin-like convertases, the inventors studied the secretion profile of FGE in cells in the presence of decanoyl-RVKR-ChloroMethylKetone (CMK), an inhibitor for PCs (FIG. 12A). […]

[2] = target: T1, recombinant furin (rFurin) (Homo sapiens, UniProt P09958); experiment: In vitro furin cleavage assay; assay type: biochemical; conditions: 25 μM inhibitor, HT1080 cell lysate
T1 construct: purchased NEB
Protocol: as §1
In mammals, the proproteinconvertase family comprises nine enzymes that differ in their substrate specificity and tissue-specific expression and/or subcellular localization (17). Furin is the best characterized mammalian PC with a ubiquitous tissue distribution and it is the major convertase in the secretory pathway. To analyze the role of furin in the processing of FGE the inventors expressed FGE in cells that are deficient for furin. […] When cell homogenate and medium from CHO-FD11 cells stably expressing FGE-His were treated with commercially available recombinant furin (rFurin), almost half the amount of FGE was processed, as observed for both cells and medium (FIG. 12D). Using this in vitro furin cleavage assay, the inventors also examined whether endogenous intracellular FGE is susceptible to furin processing. Indeed, rFurin readily converted almost 90% of endogenous fl-FGE from untransfected HT1080 cells to the truncated form (FIG. 12E).
Although FGE is an ER resident protein, it lacks a canonical ER-retention motif. […] In this study, using the in vitro furin cleavage assay, the inventors assessed furin-mediated processing of the FGE-ERp44 covalent complex (FIG. 8). Homogenates, pre-treated with NEM (to prevent post-lysis disulfide shuffling), from HT1080 cells expressing either FGE alone or FGE plus myc-ERp44 together from a bi-directional promoter were incubated with rFurin and analyzed by SDS-PAGE under non-reducing conditions. Upon overexpression, intracellular FGE via its N-terminal cysteines (C50 and C52) forms covalently cross-bridged homodimers (FIG. 15, lane 1 and 2) and, additionally, FGE-ERp44 heterodimers when co-expressed with ERp44 (FIG. 15, lane 4 and 6) as previously observed (13). Removal of the N-terminus by furin cleavage should lead to a disappearance of the homo-/hetero-dimeric FGE forms, which serves as an indicator for accessibility of the furin cleavage motif in FGE.

[3] = target: T2, steroid sulfatase (STS), expressed from pBI-STS in MSDi Tet-On cells (UniProt P08842 22-583, limits assumed); experiment: cell-based or functional assay
T2 sequence (looked up): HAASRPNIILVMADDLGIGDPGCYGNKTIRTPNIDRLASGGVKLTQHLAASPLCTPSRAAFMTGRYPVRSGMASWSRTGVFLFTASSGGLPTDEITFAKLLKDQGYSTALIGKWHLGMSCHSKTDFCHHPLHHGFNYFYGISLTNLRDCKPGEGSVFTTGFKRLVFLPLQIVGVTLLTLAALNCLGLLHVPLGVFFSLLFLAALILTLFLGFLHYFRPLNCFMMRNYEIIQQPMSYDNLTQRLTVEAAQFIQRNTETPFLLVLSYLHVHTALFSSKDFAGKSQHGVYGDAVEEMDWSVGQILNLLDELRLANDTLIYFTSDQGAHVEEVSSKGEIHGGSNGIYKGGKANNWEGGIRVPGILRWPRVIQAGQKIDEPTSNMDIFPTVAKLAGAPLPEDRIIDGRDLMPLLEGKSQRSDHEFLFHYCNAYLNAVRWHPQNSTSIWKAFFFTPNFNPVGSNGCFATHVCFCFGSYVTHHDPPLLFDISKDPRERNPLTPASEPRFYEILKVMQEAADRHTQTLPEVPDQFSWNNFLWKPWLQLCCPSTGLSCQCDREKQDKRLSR

[4] = target: T3, 23 amino acid substrate peptide Ac-MTDFYVPVSLCTPSRAALLTGRS-NH2 (SEQ ID NO: 46)
T3 chain: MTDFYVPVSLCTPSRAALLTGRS

[5] = target: the molecule itself; experiment: size exclusion chromatography (Superdex 200), non-reducing SDS-PAGE and western blot with FGE antiserum
Protocol: FIG. 16: Separation of the recombinant fl-FGE-R69A/R72A monomer and dimer by size-exclusion chromatography. (A) The pooled elution fractions from Ni-NTA purification (SM) were further purified in a Superdex (SD200 10/300 GL) column using Ettan LC system (GE health care). The eluted material in 0.5 ml of running buffer (20 mM Tris, pH 8.0 containing 200 mM NaCl) were collected and analyzed in SDS-PAGE under reducing conditions followed by coomassie staining (B) Equal volume of elution fractions obtained as shown in ‘(A)’ were resolved in SDS-PAGE under non-reducing conditions followed by western blot and membrane decorated with FGE anti-serum. (SM: starting material; FGE: monomer; FGE2: dimer).

T1 sequence (P09958 108-794): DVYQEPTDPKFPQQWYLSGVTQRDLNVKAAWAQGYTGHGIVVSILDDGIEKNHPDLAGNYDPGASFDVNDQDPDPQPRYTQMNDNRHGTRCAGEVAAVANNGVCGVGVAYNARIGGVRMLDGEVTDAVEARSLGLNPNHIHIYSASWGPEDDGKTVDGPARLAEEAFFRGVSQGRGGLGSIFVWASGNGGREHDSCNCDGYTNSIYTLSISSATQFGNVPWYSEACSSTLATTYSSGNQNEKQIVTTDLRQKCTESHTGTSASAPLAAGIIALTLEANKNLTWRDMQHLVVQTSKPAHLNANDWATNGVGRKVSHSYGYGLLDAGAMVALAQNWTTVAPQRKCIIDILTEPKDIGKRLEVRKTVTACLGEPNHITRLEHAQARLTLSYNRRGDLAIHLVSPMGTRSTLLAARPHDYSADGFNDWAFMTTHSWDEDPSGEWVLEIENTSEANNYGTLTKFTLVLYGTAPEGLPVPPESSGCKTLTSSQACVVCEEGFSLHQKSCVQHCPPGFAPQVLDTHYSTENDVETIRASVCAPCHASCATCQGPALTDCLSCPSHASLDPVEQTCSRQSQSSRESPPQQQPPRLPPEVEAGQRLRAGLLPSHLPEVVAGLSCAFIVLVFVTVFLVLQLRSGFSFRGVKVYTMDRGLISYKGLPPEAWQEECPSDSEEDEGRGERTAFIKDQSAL

- inhibition of furin-mediated processing of FGE [2]: completely abrogated
Molecule: decanoyl-RVKR-ChloroMethylKetone (Decanoyl-RVKR-CH2Cl) [RVKR-CMK, reference compound]
- amount of the truncated form of FGE in the secretions [1]: decreased by the inhibitor in a concentration dependent manner

B1: FGE-HA (human formylglycine generating enzyme, wild type, C-terminal HA tag, expressed from pBI-FGE-HA in mammalian cells) (enzyme, UniProt Q8NBK3 34-374, looked up, not shown: small tags and cut ends)
chain: SQEAGTGAGAGSLAGSCGCGTPQRPGAHGSSAAAHRYSREANAPGPVPGERQLAHSKMVPIPAGVFTMGTDDPQIKQDGEAPARRVTIDAFYMDAYEVSNTEFEKFVNSTGYLTEAEKFGDSFVFEGMLSEQVKTNIQQAVAAAPWWLPVKGANWRHPEGPDSTILHRPDHPVLHVSWNDAVAYCTWAGKRLPTEAEWEYSCRGGLHNRLFPWGNKLQPKGQHYANIWQGEFPVTNTGEDGFQGTAPVDAFPPNGYGLYNIVGNAWEWTSDWWTVHHSVEETLNPKGPPSGKDRVKKGGSYMCHRSYCYRYRCAARSQNTPDSSASNLGFRCAADRLPTMD
- relative specific activity of STS after co-expression in immortalized MSD Tet-On cells [3]: ~50 fold

B2: fl-FGE-R69A/R72A (SEQ ID NO: 4), produced in High Five insect cells (enzyme)
chain: ADEFSQEAGTGAGAGSLAGSCGCGTPQRPGAHGSSAAAHAYSAEANAPGPVPGERQLAHSKMVPIPAGVFTMGTDDPQIKQDGEAPARRVTIDAFYMDAYEVSNTEFEKFVNSTGYLTEAEKFGDSFVFEGMLSEQVKTNIQQAVAAAPWWLPVKGANWRHPEGPDSTILHRPDHPVLHVSWNDAVAYCTWAGKRLPTEAEWEYSCRGGLHNRLFPWGNKLQPKGQHYANIWQGEFPVTNTGEDGFQGTAPVDAFPPNGYGLYNIVGNAWEWTSDWWTVHHSVEETLNPKGPPSGKDRVKKGGSYMCHRSYCYRYRCAARSQNTPDSSASNLGFRCAADRLPTMDSGRGSHHHHHHH
notes: It has four extra N-terminal residues (ADEF), human FGE from S34 with R69A and R72A, and a C-terminal SGRGS-His7; After size exclusion it occurs as a monomer and as a disulfide-bridged dimer; also called Baculo-fl-FGE; recombinant fl-FGE-R69A/R72A
- specific activity, FGly generation in the 23-aa substrate peptide (MALDI-ToF MS), 2 mM DTT as reductant [4]: 24.1±1.7 mU/mg in presence of the control reductant DTT
- specific activity, FGly generation in the 23-aa substrate peptide (MALDI-ToF MS), 5 mM GSH as reductant [4]: 15.6±1.3 mU/mg in presence of GSH
- binding result [5]: binds
